Laboratory results as given in PMC6525185, “6mA-DNA-binding factor Jumu controls maternal-to-zygotic transition upstream of Zelda”.

T1: Jumu FKH domain (SPR) (UniProt Q7K214 391-540)
T1 sequence: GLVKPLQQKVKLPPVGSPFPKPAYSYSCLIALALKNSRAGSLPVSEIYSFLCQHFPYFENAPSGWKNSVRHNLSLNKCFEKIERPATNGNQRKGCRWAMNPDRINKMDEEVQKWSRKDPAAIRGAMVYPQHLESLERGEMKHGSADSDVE

B1: 6mA-dsDNA probe (dsDNA)
DNA 1: GCTATTTATGCGTTCTTTTCTTCTTTCTCATTTCTATATTTATAGTGTGTGTGTGTGTGTGGGTGTGTTTGTTGTATGTGGTTAAATATGCTTCGTTTTTGTTTAATTGGTTTTTGTTTTTGTGATGATCATGGG
DNA 2: CCCATGATCATCACAAAAACAAAAACCAATTAAACAAAAACGAAGCATATTTAACCACATACAACAAACACACCCACACACACACACACACTATAAATATAGAAATGAGAAAGAAGAAAAGAACGCATAAATAGC
modifications: N6-methyladenine in place of dA, by PCR with dm6ATP (both strands; primer-derived adenines probably unmodified, primers not given)
B2: dA-dsDNA probe (dsDNA)
DNA 1: GCTATTTATGCGTTCTTTTCTTCTTTCTCATTTCTATATTTATAGTGTGTGTGTGTGTGTGGGTGTGTTTGTTGTATGTGGTTAAATATGCTTCGTTTTTGTTTAATTGGTTTTTGTTTTTGTGATGATCATGGG
DNA 2: CCCATGATCATCACAAAAACAAAAACCAATTAAACAAAAACGAAGCATATTTAACCACATACAACAAACACACCCACACACACACACACACTATAAATATAGAAATGAGAAAGAAGAAAAGAACGCATAAATAGC

Target: T1, Jumu FKH domain (SPR)
Assay: SPR; EMSA: 20 mM HEPES pH 7.5, 50 mM KCl, 1 mM DTT (printed DDT), 1 mM EDTA, 0.01 mg/ml BSA, 2% Ficoll 400, 5 ng/µl poly(dI:dC), 25 °C, 15 nM probe; SPR: 20 mM Tris-Cl pH 8.0, 150 mM NaCl, 0.005% Tween 20, 25 °C; pull-down: 50 mM Tris-HCl pH 8, 150 mM NaCl, 1 mM DTT, 0.25% NP40
Details: protein: recombinant; label: 5' and 3' FAM (EMSA); biotin (SPR, pull-down)

| Binder | Kd |
| --- | --- |
| B1 | 2.37 µM |
| B2 | 42.1 µM |
